Target: p53CD (core domain) (human) (UniProt P04637)
Assay: ELISA
Details: EMSA: 5 mM Tris-HCl pH 8, 1 mM MgCl2, 0.01% Triton X-100, 50 mM KCl, on ice or 25 C, 30 min, pBSK/SmaI competitor 5-50 ng; ELISA: 1x PBS, 2 mM MgCl2 …

Chain of p53CD (core domain) (human) (P04637 94-312): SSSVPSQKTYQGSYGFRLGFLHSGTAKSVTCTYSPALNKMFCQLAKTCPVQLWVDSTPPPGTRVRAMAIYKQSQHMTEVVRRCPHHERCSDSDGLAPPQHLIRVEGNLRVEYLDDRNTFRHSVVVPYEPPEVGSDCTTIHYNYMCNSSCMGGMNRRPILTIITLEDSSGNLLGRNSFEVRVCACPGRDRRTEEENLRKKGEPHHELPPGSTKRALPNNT

Sequence: TTTTTTTTTTTTTTTTTTTTTTTTTTTTTTTTTTTTTTTTTTTTTTTTTT / AAAAAAAAAAAAAAAAAAAAAAAAAAAAAAAAAAAAAAAAAAAAAAAAAA / TTTTTTTTTTTTTTTTTTTTTTTTTTTTTTTTTTTTTTTTTTTTTTTTTT [T.A.T triplex, biotinylated]
- Kd: 0.0168 µM

Source: paper PMC5131957
